In the assay the target is recombinant furin, biotinylated (UniProt P09958). Put plainly: BLI. Background: In BLI a coated tip is dipped into the sample, and binding shifts an interference pattern.
Chain of recombinant furin, biotinylated (P09958 27-794): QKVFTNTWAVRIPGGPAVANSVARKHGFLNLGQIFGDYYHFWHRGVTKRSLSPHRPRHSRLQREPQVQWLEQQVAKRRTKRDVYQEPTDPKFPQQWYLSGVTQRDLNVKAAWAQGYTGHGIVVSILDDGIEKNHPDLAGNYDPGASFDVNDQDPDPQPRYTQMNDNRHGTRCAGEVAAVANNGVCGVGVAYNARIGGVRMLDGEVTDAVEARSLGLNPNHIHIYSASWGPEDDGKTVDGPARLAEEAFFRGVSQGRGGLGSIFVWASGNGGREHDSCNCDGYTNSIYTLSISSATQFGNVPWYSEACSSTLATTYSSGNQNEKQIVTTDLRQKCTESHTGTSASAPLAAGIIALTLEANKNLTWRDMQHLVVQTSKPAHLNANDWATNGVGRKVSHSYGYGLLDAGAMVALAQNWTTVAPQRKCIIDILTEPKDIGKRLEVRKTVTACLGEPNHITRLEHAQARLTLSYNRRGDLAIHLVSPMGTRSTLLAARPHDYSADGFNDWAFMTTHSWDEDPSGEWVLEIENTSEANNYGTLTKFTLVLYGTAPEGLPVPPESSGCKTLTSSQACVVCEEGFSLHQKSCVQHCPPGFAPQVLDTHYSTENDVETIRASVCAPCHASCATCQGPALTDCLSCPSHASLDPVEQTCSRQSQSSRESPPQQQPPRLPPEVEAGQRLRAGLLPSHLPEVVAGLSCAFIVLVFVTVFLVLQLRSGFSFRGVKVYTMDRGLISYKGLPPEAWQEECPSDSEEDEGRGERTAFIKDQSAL

For the substance farletuzumab-FuG1 (antibody), the fold reduction of koff against farletuzumab-cFuG1 was 10 fold.
